# Experimental data: the DeepSol protein solubility set
# Test: soluble on expression in E. coli; label from the status in PepcDB or PDB records
row,Sequence,soluble on expression in E. coli
1,MGSDKIHHHHHHMTVVEPNSDQKLDTAVATVLHEISSFQSFAVERDLEDVIERISKVFRISDIDAFRYYINKSISGLGKIYPLFNLEEVKEIDVNGYDEPVIVKLSDDNYYTTNIKLLANEVDSIAIRLAQLMGKKISTSDPLARGTLNNREVSITFGTEISPKGSSIRIARNDSGYDLKKFVESNGFSLESISYLKIAIENSKSIVIIGPHTELKYSALLFLMDLVDKEKKITYIGEKIPSRSPGNYIFMKTKEKSIFSSQIDRVSLINTAMRQRPDYIVIDTIEVVDLPSVIQAITTGHPTFTSIDIDSVSALVSAFSDSALDLGRDMVSVIDIVIEISESSDRISSIYEFDRFEHNDVLYDLVFSIDKTTEKLRYNGFSPMFRSMSNAMGKDDFHRYLENVRKITSELIENGLS,not soluble
2,MSLKWNRPAGSLSATLILAHGAGAPMDSPFMERIAELLAAQGIAVARFEFPYMAQRREDGRKRPPNPQAQLLDCWRRVHAQVRETLDGPLALGGKSMGGRMASLLADELGADALVCLGYPFYAAGKPEKPRVAHLAGLRTPTLIVQGERDALGNREAVAGYALAPTIRLHWLAAADHDLKPLKASGLTHEQHLAATAREVAGFLRGLQGH,not soluble
3,MASATARGLRKRLTPQEARLWAGLRELKLRGYHFRRRAPIGCYVVDFVCLSAKLVIDADGEQQAMPAHFAADRQRGVVLRRQGFRVLHFWNSDIDRYFEGVMQTVLDALPPPSVRPNVSRTGHSIHEGAGESG,soluble
4,MSGVLNTVDQRTNLVGENRLELLLFTLNSRQLFAINVFKVKEVIKLPPLTKLPGSHYNIRGVASLRGEAVPVIDLRCSIGFPPLRGEAEEENLIVTEYNRSVQGFLVGPVRNIINTAWTEIQPPPSTSGRSNYLTAITQVKDGDTSQIVEIIDVEKVLAEIVHYDVTISEDILDHDLSQSMVGRN,not soluble
5,MKDKQLRLRIYRSAFSSMKNAIVEKAREFGVPVILVDPSYTSSICPVHGSKIIYQPDGGSAPRVGVCGKGGERWHRDVVALYNLRKRAGDVLEHHHHHH,not soluble
6,MAHHHHHHMNDCISTDKVDLDKKQIKKFLKQINISQLTKMIQFIDNKLLSDWDFNCLTYFDESEYPFFDINLSLICTIDHNIPINIIINFLCFVEKQYNNVPYHNTIHATMVTQKFFCLAKKLGIYDDLEYKIKLVMFISGICHDIGHPGYNNLFFVNSLHPLSIIYNDISVLENYHASITFKILQLNQCNILKNFSEKDFRMMRSYIIELILSTDMKHHFEIISKFRIRRENEDFDYIKNSDDLLILTKMIIKSADISHGSVSWSEHYCWCQRVLSEFYTQGDEELKNKMPLSPLCDRTKHNEVCKSQITFLKFVVMPLFEELSHIDNNKFIKSFCLKRLNSNCIMWDTLMKEEKTIEVYDPAAVKLKDKKKKKVDKKKKSYIDLTLFFIKNV,not soluble
7,SASDFEERVVTIPLRDARAEPNHKRADKAMILIREHLAKHFSVDEDAVRLDPSINEAAWARGRANTPSKIRVRAARFEEEGEAIVEAETAE,soluble
8,MSDNNTLRMAEMLDKQNSRQHDFMKLMMEMNNSARLSDQARDDRNAIRNENNLKEVFNKLIEAQKEESPIDISIKIRR,not soluble
9,SAASAALILPESPSMKKAVPLINAIDTGRFPRLLSRILQKLHLKAESSFSEEEEEKLQAAFSLEKQELHLVLETISFVLEQAVYHNVKPAALQQQLEMIHLRKDKAEAFASAWSAMGQETVEKFRQRILGPHKLETVGWQLNLQMAHSAQAKLQSPQAVLQLGVSKEDAKNVEKVLVEFNHKELFDFYNKLETIQAQLDSLT,soluble
10,MNSRIETFHQMEWHFFSLISMELLSLEGLKACNSGMPIPALNPVFYSGKSTLLVAEIYQCKRFYESHSVPWALMVPDYLSDTKTDNVLAQSGFLSIDQGVAMYLSIQDLGMPGFKSDLLIKRMDNEMETWILPTIPAFESTAEIAKIYRVRHQEAIEKSSDIYHFSGFIQEQIVCSLTLTVMGDCARIDDVATFPKYQKNGYATQLILSELQILKDTNISWCFLEASADGLNIYKKIGFRELFKNLYYEEQYHYEQN,not soluble
11,GPGSMPVANEASSFNVLYALNKCNPKRRRWMNGWLYVNFDRATLVDGISRKAVGVVSGTGLLPNKVFKMMVEADNGAAWEMGTEVVIGQYITQIEGTTRLHLIPYTLFSGVDCIDDNAAEEVSSVELAGSSMTSRVVNVTAGFSATRADAPLSRRKTTEQLISELRGAYPQIFI,not soluble
12,MTTHLSNVAPDLQNYLNAIGEPEHPVLTRLREKTGHHRMGKMAIAREQAAVLVWLAKLIRAEKYLEIGVFTGYSSTALALALPEHGRITACDINVTFTDTARQVWNEAGVAHKISLHLQPALLTLDDLIAQGEAGSYDLALIDADKPPTPQYFERCLKLVRQGGIIAIDNILLNGRVMREAASDAPPSVGILKDFNQNLPNDPRIVPITLPVGDGLTLLLKK,not soluble
13,MALRLAVSSALRPALNSQVRNASSAVSVKDVLASAPQAEVTTLKNGFRVVTEDNGSATATVGVWIETGSRFENEKNNGVAHFLERLIHKGTGKRASAALESELNAIGAKLNSFTERDQTAVFVQAGAQDVEKVVDILADVLRNSKLEASTIDTERVNLLKELEASDDYHQLVLFDMLHAAGFQGTPLALSVLGTSESIPNISAQQLKEWQEDHYRPVRMVLSAVGGGVSNVSSLADKYFGDLSNEYPRKVPQVDGTRFTGSEYRYRNDNVPHMYAAFAVEGVGYAHKDALALQIANQFIGQWDVTHATSRTAASRLVQKIGHDHGVHNLQHFNINYKDTGLFGIYFVADAHDLNDTSGIMKSVAHEWKHLASAATEEEVAMAKNQFRTNLYQNLETNTQKAGFNAKELLYTGNLRQLSELEAQIQKVDAGAVREAISRHVYDRDLAAVGVGRTEAFPNYALTRAGMSWWRM,not soluble
14,MIDQLQVGPNPLVGLLDDVHMLEVQRDSGVANILNSPEIKKRHYNATRKRVNRRDSTIVEPEAKSRKMDENWTGVGTESESTDCVETTETRFTWFKAQTKHPGLAKSLQSEVTKVGLSIVDLQHCTLPCKSINYNFHFYSFKGLSREDSKKFEEMIDQNFVNNFCAENLLNKEDKNFFYYDLGYKQVVSLSMLATYFKIKNEQPLLHPLKMLLNKQLLKKAFEDADTHVELKKYLSKNGYSKLVQWMEEMTQ,not soluble
15,MGSDKIHHHHHHMKKMLKPFYNWLRLKLQFLEEAYYFWLLLCRHNASVNTEASMKKMQYILLREAHVIEKGMSMRNPRKGFGQAKILIMLQNLNRYYDLYSTEDLDFLKFPISTVGSYIQYTNEMGIDITKIEQQYLNLVSRTGFQNLNRHSGIESIAKSDILKECNKTFESLLYSRHSIRYFDNKIPSKEMLEKALKLASRTPSACNRQGWLTHIFIGEKSYSLLQWQGGSNGFEKEIHCSILVTANLNAFLSYEVHQAYVDGGLYAMNLLNALHSLGLGTIPLSCGFGYSKLRMLKKQFYIPENEVPIMIIGVGELLDHFNVAISMRRDVSTTNTYHY,not soluble
16,MGSDKIHHHHHHMDLNALTLLVDILDAGNLSKAAQRLKMSRANVSYRLNQLEKSIGLQLVRRTTRRIEPTEIGLRLYEHGRRIQSELFAAREAVTTLGQDLQGRVRLSVPSGYGQLVMSNWLIAFKRLYPGIVLDVVFENRIEDLMRDEVDIAVRVMSEPPQNLVARDMGAVRYVACASPGFAATHGMPTELGQLFDAPVITSTVVGRQLRVAAYLGDERHEVLLEPTLISENFLFLRQAILAGLGVGIVPDYVVHDDVRRGAVVTTLDAYRLSIFGTHMYMLYMPNRHHTRATSTFIDFMLEEARNAGRGG,not soluble
17,MGSDKIHHHHHHMSLEKERIEKEHIEEMNQAKLRFFTNVSHEFRTPLTLIISQVELMLQKNTIPPSLHNSIFRIRKHAQQMKLLISELLDFRKFDQNYIQLKLSEQSLNTFLEEVYLSFSAYASQKSISYHLKLLEQDISIWIDDWQMRKVLFNLLSNAFKHVPDKGEISILTSTTPDQVVIAVKDSGNGISKEEQERIFDRFYQADNRNKAIHVGTGIGLALTKSIIQLHHGTIEVESELNEGSCFIVKLPKTRDCFEKDTEVVFLESPEKEPMVQENTIPDENFMKKDDSTFETPLIDEREGKRKVLLVEDNVELLQVLKEIFSSLYQVVTAANGEEGLKQAFAEVPDLIVSDVMMPVMTGTEMCLKIKNNINLCHIPVVLLTALDTVDQNIEGLRRGADDYITKPFNAKILITRCNNLIRNRLLMQSRFAKDQILEINLLAANPIDKGFLDRVIKVVDKHIDNEDFDIGMLCQELGMGRTLLHTKFKALTGMTPNEFILNHRLKIASLMLKNEPYLQVAEISDRLGFGSPRYFSRCFKNQYNVTPMEYRKGAKQENLK,not soluble
18,MSLAEFIYTMKKVRKAHGDKVILDDVTLSFYPGAKIGVVGPNGAGKSSVLRIMAGLDKPNNGDAFLATGATVGILQQEPPLNEDKTVRGNVEEGMGDIKIKLDRFNEVAELMATDYTDELMEEMGRLQEELDHADAWDLDAQLEQAMDALRCPPADEPVTNLSGGERRRVALCKLLLSKPDLLLLDEPTNHLDAESVQWLEQHLASYPGAILAVTHDRYFLDNVAEWILELDRGRAYPYEGNYSTYLEKKAERLAVQGRKDAKLQKRLTEELAWVRSGAKARQAKSKARLQRYEEMAAEAEKTRKLDFEEIQIPVGPRLGNVVVEVDHLDKGYDGRALIKDLSFSLPRNGIVGVIGPNGVGKTTLFKTIVGLETPDSGSVKVGETVKLSYVDQARAGIDPRKTVWEVVSDGLDYIQVGQTEVPSRAYVSAFGFKGPDQQKPAGVLSGGERNRLNLALTLKQGGNLILLDEPTNDLDVETLGSLENALLNFPGCAVVISHDRWFLDRTCTHILAWEGDDDNEGHHHHHH,not soluble
19,MGSDKIHHHHHHMRTVQAISGLVTSRFFGTSTRIMASGKTLNTSNINPNVIKMEYAVRGPIVIRAVELEKELATGAQKPFPNVIKANIGDAHAMGQKPITFIRQLLACIVNPEIMKTDKSIPSDVIEHANAFLGSCGGKSAGAYSQSTGVEIVRKHVAEYIKRRDGGIPCNSEDVCLSGGASESIRNVLKLFINHNNAKKVGVMIPIPQYPLYSATIEEFGLGQVGYYLSESSNWSMDEAELERSFNDHCKEYDIRVLCIINPGNPTGQALSRENIETIIKFAQKKNLFLMADEVYQDNVYAQGSQFHSFKKVLVEMGEPYNKMELASFHSVSKGYMGECGMRGGYVEFLNLDPEVYVLFKKMISAKLCSTVLGQAVIDAVVNPPKEGDASYALWKQEKDAVLASLKERATLVEKAYSSIDGISCNPVQGAMYAFPQITIPQRAVEKAQSLNQQPDFFYAMQLLETTGICIVPGSGFGQKDGTYHFRTTILPQPELFKDMLSRFTDFHQKFLAEYKRLYCHFHLTNNRTSDSFWHTLIDGFPKYKVFVQNRRSTQCAFHSIQLSRF,not soluble
20,MHHHHHHSSGVDLGTENLYFQSMKQYEHVTRDLNPEDFWEIIGELGDGAFGKVYKAQNKETSVLAAAKVIDTKSEEELEDYMVEIDILASCDHPNIVKLLDAFYYENNLWILIEFCAGGAVDAVMLELERPLTESQIQVVCKQTLDALNYLHDNKIIHRDLKAGNILFTLDGDIKLADFGVSAKNTRTIQRRDSFIGTPYWMAPEVVMCETSKDRPYDYKADVWSLGITLIEMAEIEPPHHELNPMRVLLKIAKSEPPTLAQPSRWSSNFKDFLKKCLEKNVDARWTTSQLLQHPFVTVDSNKPIRELIAEAKAEVTEEVEDGKE,soluble
21,MITIITQDQLKTSPSVREDGRAFDELRPLKIEAGILERADGSSYLEFGGNKILVAVYGPREAQIRKLQRPDRAVIRCRYNMAPFSVEERKRPGPDRRSVEISKITAEALRPALILEKFPRSVIDVFIEVLEAEGGTRCAGITAASVALADAGIPMRDMVVACAAGKVGDQVVLDLSEEEDKEGQADVPVAILPRTREITLLQSDGNLTPEEFERALDLAVEGCLRIHEVQKEALRKRYGE,soluble
